Numbering of substitutions follows the chain as printed. Each block holds one binder with its values, some of them ahead of it.
Key:
[1] = biological target: T1, human Kell glycoprotein, Kp^b form (KEL4) (human, UniProt P23276 1-732); assay: flow cytometry, indirect immunofluorescence on human RBCs
T1 construct: whole, on cells; On human Kp^b/Kp^b RBCs
T1 sequence (looked up): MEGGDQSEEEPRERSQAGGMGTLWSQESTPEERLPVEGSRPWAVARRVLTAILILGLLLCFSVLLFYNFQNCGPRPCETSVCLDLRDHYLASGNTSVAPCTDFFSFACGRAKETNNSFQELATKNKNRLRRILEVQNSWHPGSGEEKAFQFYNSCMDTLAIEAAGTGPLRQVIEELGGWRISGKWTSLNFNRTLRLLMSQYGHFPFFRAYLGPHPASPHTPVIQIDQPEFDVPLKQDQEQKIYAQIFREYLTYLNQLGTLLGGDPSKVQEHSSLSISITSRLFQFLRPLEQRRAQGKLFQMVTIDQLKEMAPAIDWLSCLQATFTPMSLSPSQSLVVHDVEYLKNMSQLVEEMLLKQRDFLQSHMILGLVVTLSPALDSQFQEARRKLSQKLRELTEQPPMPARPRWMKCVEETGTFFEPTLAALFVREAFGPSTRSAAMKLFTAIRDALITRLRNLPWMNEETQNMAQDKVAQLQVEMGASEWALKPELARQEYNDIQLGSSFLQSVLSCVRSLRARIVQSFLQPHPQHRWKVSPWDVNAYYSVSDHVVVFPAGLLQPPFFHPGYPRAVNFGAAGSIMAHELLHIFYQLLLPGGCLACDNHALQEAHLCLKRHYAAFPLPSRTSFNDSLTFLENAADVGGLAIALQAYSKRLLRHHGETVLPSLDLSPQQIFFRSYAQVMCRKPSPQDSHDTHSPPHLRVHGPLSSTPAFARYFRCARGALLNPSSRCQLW
Method: (§1) The specificities of the antibodies were determined to be: PUMA ½ (KEL1 or K), PUMA 3 (a common Kell epitope, PUMA 4 (KEL4 or Kp^b). Flow cytometry was utilized to test antibody specificity by indirect immunofluorescence, using the monocolonal antibodies as the primary reagent and a goat-anti-mouse antibody (conjugated to allophycocyanin) as a secondary antibody. Different target cells expressing different Kell variants were used to determine specificity. Targets included RBCs that phenotyped as homozygous for the 3 main antithetical antigens in the Kell system, K/K, k/k, Kp^{b/}Kp^b, Kp^{a/}Kp^a. Js^{b/}J^b, Js^{a/}Js^a. Differential binding to such tarets tests specificity. In the case of PUMA ½, binding was only observed when K was present but not on k/k RBCs. In the case of PUMA 3, binding was observed on all RBCs regardless of phenotype for K/k, Kp^{a/}Kp^{b,} or Js^{a/}Js^b, thus indicating a common epitope outside these systems. However, PUMA 3 bound to only KELL glycoprotein transgenic murine RBCs and not wild-type murine RBCs; thus, the epitope recognized by PUMA 3 is on the KELL molecule, but not K/k, Kp^{a/}Kp^b, or Js^{a/}Js^b. For PUMA 4, binding was only observed when Kp^b was present but not on Kp^{a/}Kp^a RBCs.

[2] = biological target: T2, human Kell glycoprotein, K form (KEL1) (human, UniProt P23276 1-732); assay: flow cytometry on K transgenic mouse RBCs
T2 construct: whole, on cells; On human K/K or K+k+ RBCs and on RBCs of K transgenic mice; also called K antigen; K variant
T2 sequence (looked up): T1 sequence (looked up) with T193M

[3] = biological target: T3, human Kell glycoprotein, k form (KEL2) (human, UniProt P23276 1-732); assay: flow cytometry, indirect immunofluorescence on k/k human RBCs
T3 construct: whole, on cells; On human k/k or K-k+ RBCs; also called k antigen
T3 sequence (looked up): T1 sequence (looked up)
Method: as §1

[4] = biological target: T1, human Kell glycoprotein, Kp^b form …; assay: flow cytometry, indirect immunofluorescence on Kp^b/Kp^b human RBCs
Method: as §1

[5] = biological target: T4, human Kell glycoprotein, Js^b form (KEL7) (human, UniProt P23276 1-732); assay: flow cytometry, indirect immunofluorescence on Js^b/Js^b human RBCs
T4 construct: whole, on cells; On human Js^b/Js^b RBCs
T4 sequence (looked up): T1 sequence (looked up)
Method: as §1

[6] = biological target: T2, human Kell glycoprotein, K form (KEL1); assay: flow cytometry, indirect immunofluorescence on K/K human RBCs
Method: as §1

- binding result [1]: binds
B1: PUMA 4 monoclonal antibody (antibody, V domains shown)
VH: EVKLEESGGGLVQPGGSMKLSCVASGFTFSNYWMNWVRQPPEKGLEWVAEIRLNSNNYATHYAESVKGKFTISRDDSKSSVYLQMNDLRAEDTGIYYCTRNWDFAWFDSWGQGTLVTVSA
VL: DIVMTQSHKFMSTSVGDRVSITCKASQDVSTVVAWYQQKPGQSPKLLIYWASTRHTGVPDRFTGSGSGTDYTLTISSVQAEDLALYYCQQHYTTPFTFGSGTKLEIK
notes: Mouse monoclonal from hybridoma

- binding result [2]: binds
- binding result [3]: no binding
B2: PUMA 1 monoclonal anti-K antibody (antibody, mouse IgG2a, V domains shown)
VH: EVQLQQSGPELVKPGASVKMSCKASGYTFTDYYMKWVKQSHGKSLEWIGDLNPNNGDTFYNQKFKGKATLTVDKSSSTAYIQLNSLTSEDSAVYYCAREAGSSFGSSCNYWGQGTTLTVS
VL: SVVMTQTPKFLLVSAGDRVTITCKASQTVSKDVAWYQQQPGQSPKLLIYYASNRYTGVPDRFTGSGYGTDFTFTISTVQAEDLAVYFCQQDYSSPYTFGGGTKLEIK
notes: also called PUMA 2; PUMA ½

- binding result [3]: binds
- binding result [4]: binds
- binding result [5]: binds
- binding result [6]: binds
B3: PUMA 3 monoclonal antibody (antibody, V domains shown)
VH: QVQLKESGPGLLAPSQSLSITCTVSGFSLTSYGVYWVRQPPGKGLEWLGIIWGDGSTNYQSVLRSRLSITKDDSKSQVFLKLNSLQTDDTATYYCAKRGDYDVAYWGQGTLVTVSA
VL: DIVLTQSPASLAVSLGQRAIISCKASQTVSEVGTSLMHWYQQRPGQQPKLLIYRTSNLEAGVPTRFSGSGSRTDFTLNIHPVEEDDAATYYCQQSREFPWTFGGGTRLEIK
notes: as for B1

— patent US20210356479A1 (BLOODWORKS, published 2021)
